Changes are numbered by the printed parent chain. Each block holds one binder with its values, some of them ahead of it.
What was measured:
[1] = target: T1, soluble TSHR protein (ELISA coat) (human, UniProt P16473 22-260, limits assumed); test: ELISA, plate coated with soluble TSHR, antibody at 300 nM, anti-human IgG Fc-HRP;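 also: TSHR coated at 2 µg/ml, bound antibody revealed by goat anti-human IgG Fc HRP, color developed with TMB and stopped with H2SO4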
Procedure: (§1) Select TSHR antibody variants were tested for their ability to bind TSHR in an ELISA. Briefly, soluble TSHR protein was coated onto a plate at 2 μg/ml in phosphate buffered saline (PBS). The plate was washed with PBS and blocked with 4% skim milk in PBS.
(§2) Following wash steps with 1×PBS-Tween 0.05%, bound human IgG was detected with peroxidase conjugated goat anti-human IgG (Fc specific)-HRP at 1:5000 dilution and the ELISA was developed with TMB reagent followed by H2SO4.

[2] = target: T1, soluble TSHR protein (ELISA coat); test: ELISA, plate coated with soluble TSHR, antibody at 33.3 nM, anti-human IgG Fc-HRP;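 also: binding of antibody variants to plate-bound soluble TSHR (coated at 2 µg/ml), with bound human IgG detected by HRP conjugate and colour developed using TMB substrate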
Procedure: as §1, §2

[3] = target: T1, soluble TSHR protein (ELISA coat); test: ELISA, plate coated with soluble TSHR, antibody at 100 nM, anti-human IgG Fc-HRP;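 also: binding of antibody variants to soluble TSHR coated at 2 µg/ml, with colour developed using TMB substrate and stopped with H2SO4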
Procedure: as §1, §2

[4] = target: T2, Soluble TSHR (22-260) protein (human, UniProt P16473 22-260); test: SPR (Biacore T200, 25 C), antibody captured on anti-human Fc, soluble TSHR (22-260) as analyte, 1:1 fit;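 also: antibodies captured at 0.1 ug/mL on a CM5 sensor chip bearing anti-human Fc, with HBS-EP+ running buffer at pH 7.4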
T2 construct: range 22-260
Procedure: Measurements were taken on a Biacore T200 at 25 C using a CM5 chip coated with anti-human Fc. Test antibodies were captured at 0.1 ug/mL in HBS-EP+ (10 mM HEPES pH7.4, 150 mM NaCl, 3 mM EDTA, 0.05% Tween 20) assay buffer. […] A 1:1 binding kinetics fit was used to calculate kinetic parameters.

B1: TSHB-22 (antibody, V domains shown)
VH: EVQLVQSGAEVKKPGQSLKISCKASGYSLTDNWIGWVRQKPGKGLEWMGIIYPGDSDTRYSPSFQGQVTISADKSINTAYLQWSSLKASDTAIYYCVGLDWNYNPLRYWGPGTLVTVSS
VL: QSVLTQPPSVSGAPGQRVTISCSGSSSDIGSNYVSWYQQLPGTAPKLLIYDNNKRPSGVPDRFSGSKSGTSASLAITGLQAEDEADYYCGTWDSRLGIAVFGGGTKLTVL
ELISA (OD 450) at 300 nM [1]: 0.53 OD 450 | ELISA (OD 450) at 33.3 nM [2]: 0.447 OD 450 | ELISA (OD 450) at 100 nM [3]: 0.493 OD 450

B3: TSHB-6 (antibody, V domains shown)
VH: B1 VH with Q16E, T30N, N77S, P111Q
VL: B1 VL with G12A, R17K, L40F, G58A, V59I, S73T, A75G, A81T, E82G, K106Q
ELISA (OD 450) at 300 nM [1]: 0.548 OD 450 | ELISA (OD 450) at 33.3 nM [2]: 0.45 OD 450 | Kd [4]: 3.73 nM | koff [4]: 0.000532 s⁻¹ | kon [4]: 142000 M⁻¹ s⁻¹ | ELISA (OD 450) at 100 nM [3]: 0.493 OD 450

B5: TSHB-7 (antibody, V domains shown)
VH: B1 VH with Q16E, T30K, N77S, P111Q
VL: B1 VL with G12A, R17K, L40F, G58A, V59I, S73T, A75G, A81T, E82G, K106Q
ELISA (OD 450) at 300 nM [1]: 0.555 OD 450 | ELISA (OD 450) at 33.3 nM [2]: 0.443 OD 450 | Kd [4]: 4.11 nM | koff [4]: 0.000477 s⁻¹ | kon [4]: 116000 M⁻¹ s⁻¹ | ELISA (OD 450) at 100 nM [3]: 0.491 OD 450

B6: TSHB-17 (antibody, V domains shown)
VH: B1 VH
VL: B1 VL with G12A, R17K, N32L, V59I, S73T, A75G, A81T, E82G, K106Q
ELISA (OD 450) at 300 nM [1]: 0.475 OD 450 | ELISA (OD 450) at 33.3 nM [2]: 0.357 OD 450 | Kd [4]: 8.25 nM | koff [4]: 0.000407 s⁻¹ | kon [4]: 49400 M⁻¹ s⁻¹ | ELISA (OD 450) at 100 nM [3]: 0.402 OD 450

B7: TSHB-11 (antibody, V domains shown)
VH: B1 VH with Q16E, N77S, L99T, P111Q
VL: B1 VL with G12A, R17K, L40F, G58A, V59I, S73T, A75G, A81T, E82G, K106Q
ELISA (OD 450) at 300 nM [1]: 0.289 OD 450 | ELISA (OD 450) at 33.3 nM [2]: 0.159 OD 450 | Kd [4]: 53.3 nM | koff [4]: 0.000643 s⁻¹ | kon [4]: 12100 M⁻¹ s⁻¹ | ELISA (OD 450) at 100 nM [3]: 0.22 OD 450

B8: TSHB-19 (antibody, V domains shown)
VH: B1 VH
VL: B1 VL with G12A, R17K, Y33W, V59I, S73T, A75G, A81T, E82G, K106Q
ELISA (OD 450) at 300 nM [1]: 0.547 OD 450 | ELISA (OD 450) at 33.3 nM [2]: 0.405 OD 450 | Kd [4]: 3.12 nM | koff [4]: 0.000369 s⁻¹ | kon [4]: 118000 M⁻¹ s⁻¹ | ELISA (OD 450) at 100 nM [3]: 0.47 OD 450

B9: TSHB-3 (antibody, V domains shown)
VH: B1 VH with Q16E, N77S, D100E, P111Q
VL: B1 VL with G12A, R17K, L40F, G58A, V59I, S73T, A75G, A81T, E82G, K106Q
ELISA (OD 450) at 300 nM [1]: 0.467 OD 450 | ELISA (OD 450) at 33.3 nM [2]: 0.351 OD 450 | Kd [4]: 3.01 nM | koff [4]: 0.000533 s⁻¹ | kon [4]: 177000 M⁻¹ s⁻¹ | ELISA (OD 450) at 100 nM [3]: 0.407 OD 450

B10: TSHB-18 (antibody, V domains shown)
VH: B1 VH
VL: B1 VL with G12A, R17K, S27T, V59I, S73T, A75G, A81T, E82G, K106Q
ELISA (OD 450) at 300 nM [1]: 0.55 OD 450 | ELISA (OD 450) at 33.3 nM [2]: 0.42 OD 450 | Kd [4]: 2.94 nM | koff [4]: 0.000368 s⁻¹ | kon [4]: 125000 M⁻¹ s⁻¹ | ELISA (OD 450) at 100 nM [3]: 0.495 OD 450

B12: TSHB-13 (antibody, V domains shown)
VH: B1 VH
VL: B1 VL with G12A, R17K, V59I, S73T, A75G, A81T, E82G, K106Q
ELISA (OD 450) at 300 nM [1]: 0.561 OD 450 | ELISA (OD 450) at 33.3 nM [2]: 0.459 OD 450 | ELISA (OD 450) at 100 nM [3]: 0.495 OD 450

Further lines, results first:

ELISA (OD 450) at 300 nM [1]: 0.54 OD 450 | ELISA (OD 450) at 33.3 nM [2]: 0.411 OD 450 | Kd [4]: 2.77 nM | koff [4]: 0.000301 s⁻¹ | kon [4]: 109000 M⁻¹ s⁻¹ | ELISA (OD 450) at 100 nM [3]: 0.465 OD 450
B2: TSHB-20 (antibody, V domains shown)
VH: B1 VH
VL: B1 VL with G12A, R17K, D28N, V59I, S73T, A75G, A81T, E82G, K106Q

ELISA (OD 450) at 300 nM [1]: 0.557 OD 450 | ELISA (OD 450) at 33.3 nM [2]: 0.44 OD 450 | Kd [4]: 2.94 nM | koff [4]: 0.000338 s⁻¹ | kon [4]: 115000 M⁻¹ s⁻¹ | ELISA (OD 450) at 100 nM [3]: 0.496 OD 450
B4: TSHB-10 (antibody, V domains shown)
VH: B1 VH with Q16E, Q65K, N77S, P111Q
VL: B1 VL with G12A, R17K, L40F, G58A, V59I, S73T, A75G, A81T, E82G, K106Q

ELISA (OD 450) at 300 nM [1]: 0.542 OD 450 | ELISA (OD 450) at 33.3 nM [2]: 0.374 OD 450 | Kd [4]: 2.41 nM | koff [4]: 0.000362 s⁻¹ | kon [4]: 150000 M⁻¹ s⁻¹ | ELISA (OD 450) at 100 nM [3]: 0.453 OD 450
B11: TSHB-4 (antibody, V domains shown)
VH: B1 VH with Q16E, S28E, N77S, P111Q
VL: B1 VL with G12A, R17K, L40F, G58A, V59I, S73T, A75G, A81T, E82G, K106Q

ELISA (OD 450) at 300 nM [1]: 0.566 OD 450 | ELISA (OD 450) at 33.3 nM [2]: 0.443 OD 450 | Kd [4]: 2.7 nM | koff [4]: 0.000385 s⁻¹ | kon [4]: 142000 M⁻¹ s⁻¹ | ELISA (OD 450) at 100 nM [3]: 0.487 OD 450
B13: TSHB-16 (antibody, V domains shown)
VH: B1 VH
VL: B1 VL with G12A, R17K, S31A, V59I, S73T, A75G, A81T, E82G, K106Q

From US20250388688A1 (ETHYREAL BIO, published 2025)
